Test [1] concerns the target human TLR4 (hTLR4) on HEK-Blue-hTLR4 reporter cells (human) (UniProt O00206).
The target of test [2] is mouse TLR4 (mTLR4) on HEK-Blue-mTLR4 reporter cells (mouse) (UniProt Q9QUK6). The settings on record: for log (EC50) of NF-kB-driven SEAP secretion by HEK-Blue-mTLR4 reporter cells, 48 h, dose-response up to 2540 nM: scale: log.

Our source for the activation of HEK-Blue-hTLR4 reporter cells (SEAP), dose-response up to 2,540 nM, 48 h, LPS = 100%, maximum activation of HEK-Blue-mTLR4 reporter cells (SEAP), dose-response up to 2540 nM, 48 h, LPS plateau = 100% and log (EC50) of NF-kB-driven SEAP secretion by HEK-Blue-mTLR4 reporter cells, 48 h, dose-response up to 2540 nM values is article PMC10544979.

Sequence of UniProt Q9QUK6 (Q9QUK6 26-835): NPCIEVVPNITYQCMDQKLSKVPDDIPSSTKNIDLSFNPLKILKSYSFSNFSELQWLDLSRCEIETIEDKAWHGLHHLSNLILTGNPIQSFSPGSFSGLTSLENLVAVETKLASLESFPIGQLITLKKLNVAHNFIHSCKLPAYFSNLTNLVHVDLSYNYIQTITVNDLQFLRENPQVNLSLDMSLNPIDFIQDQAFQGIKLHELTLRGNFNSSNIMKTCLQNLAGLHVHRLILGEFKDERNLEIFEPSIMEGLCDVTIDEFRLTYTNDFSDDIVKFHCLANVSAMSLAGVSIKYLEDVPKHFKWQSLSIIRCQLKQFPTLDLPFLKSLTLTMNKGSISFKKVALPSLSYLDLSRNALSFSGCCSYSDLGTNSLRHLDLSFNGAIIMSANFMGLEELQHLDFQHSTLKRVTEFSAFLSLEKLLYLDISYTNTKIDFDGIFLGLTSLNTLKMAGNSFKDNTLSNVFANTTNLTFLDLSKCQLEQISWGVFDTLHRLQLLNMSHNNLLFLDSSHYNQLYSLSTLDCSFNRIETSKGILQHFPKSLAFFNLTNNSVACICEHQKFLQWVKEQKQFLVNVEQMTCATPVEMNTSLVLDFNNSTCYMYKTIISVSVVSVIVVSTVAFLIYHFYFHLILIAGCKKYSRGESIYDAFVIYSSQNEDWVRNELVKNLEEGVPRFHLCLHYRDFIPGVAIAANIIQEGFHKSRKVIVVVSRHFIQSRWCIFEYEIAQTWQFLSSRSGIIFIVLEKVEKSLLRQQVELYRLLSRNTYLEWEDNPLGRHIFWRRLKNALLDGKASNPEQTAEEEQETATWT
Sequence of UniProt O00206 (O00206 24-839): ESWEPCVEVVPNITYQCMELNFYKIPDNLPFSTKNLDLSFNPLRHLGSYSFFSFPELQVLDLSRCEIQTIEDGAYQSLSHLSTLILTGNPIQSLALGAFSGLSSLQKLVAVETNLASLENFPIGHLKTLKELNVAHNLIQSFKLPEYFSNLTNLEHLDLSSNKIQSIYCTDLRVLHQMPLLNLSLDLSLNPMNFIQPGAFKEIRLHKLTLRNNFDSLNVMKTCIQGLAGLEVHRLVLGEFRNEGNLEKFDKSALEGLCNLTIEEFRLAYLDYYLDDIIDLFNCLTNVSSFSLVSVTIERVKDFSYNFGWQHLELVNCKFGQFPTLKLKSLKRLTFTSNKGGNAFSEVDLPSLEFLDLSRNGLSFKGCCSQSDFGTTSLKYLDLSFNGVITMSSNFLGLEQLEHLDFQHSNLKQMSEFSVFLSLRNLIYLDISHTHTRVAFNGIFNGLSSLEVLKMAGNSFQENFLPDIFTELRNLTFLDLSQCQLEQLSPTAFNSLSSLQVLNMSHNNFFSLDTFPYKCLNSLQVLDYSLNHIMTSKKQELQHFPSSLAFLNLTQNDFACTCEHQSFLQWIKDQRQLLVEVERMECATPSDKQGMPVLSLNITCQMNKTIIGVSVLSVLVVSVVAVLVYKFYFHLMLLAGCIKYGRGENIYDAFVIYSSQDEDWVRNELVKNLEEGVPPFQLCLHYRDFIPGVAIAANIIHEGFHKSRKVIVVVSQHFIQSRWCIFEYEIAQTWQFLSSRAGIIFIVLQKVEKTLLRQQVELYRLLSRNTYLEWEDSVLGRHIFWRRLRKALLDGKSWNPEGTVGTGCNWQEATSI

“Fissurella latimarginata hemocyanin (FLH) (natural protein)”: the activation of HEK-Blue-hTLR4 reporter cells (SEAP), dose-response up to 2,540 nM, 48 h, LPS = 100% in test [1] is 25 % of LPS. In test [2], the maximum activation of HEK-Blue-mTLR4 reporter cells (SEAP), dose-response up to 2540 nM, 48 h, LPS plateau = 100% is 80 % of LPS and the log (EC50) of NF-kB-driven SEAP secretion by HEK-Blue-mTLR4 reporter cells, 48 h, dose-response up to 2540 nM amounted to 0.1.

Take “recombinant surface immunogenic protein (rSIP) from Streptococcus agalactiae (natural protein)”: the activation of HEK-Blue-hTLR4 reporter cells (SEAP), dose-response up to 2,540 nM, 48 h, LPS = 100% in test [1] is 90 % of LPS. Further, in test [2], the maximum activation of HEK-Blue-mTLR4 reporter cells (SEAP), dose-response up to 2540 nM, 48 h, LPS plateau = 100% is 80 % of LPS and the log (EC50) of NF-kB-driven SEAP secretion by HEK-Blue-mTLR4 reporter cells, 48 h, dose-response up to 2540 nM is -1.
